# Starred links: 1 amine or outer side, 2 acyl side, 3 side chain; linkers in the order of their positions; H or OH if unused. Non-standard residues stand in square brackets, D forms with d. *: point of attachment. Pipz(1-CH2CO,4-CH2CH2NH) = O=C(CN1CCN(CCN[*:1])CC1)[*:2]; C18 diacid = O=C(O)CCCCCCCCCCCCCCCCC(=O)*; γGlu = O=C(O)[C@H](CCC(=O)[*:2])N[*:1]; 2Pal = N[C@@H](Cc1ccccn1)C(=O)O; 4Pal = N[C@@H](Cc1ccncc1)C(=O)O; NMeL = CN[C@@H](CC(C)C)C(=O)O; NMeA = CN[C@@H](C)C(=O)O; Nle = CCCC[C@H](N)C(=O)O; Sar = CNCC(=O)O
# T1: human neuromedin U receptor 1 (human, UniProt Q9HB89 24-426)
# T1 sequence (looked up): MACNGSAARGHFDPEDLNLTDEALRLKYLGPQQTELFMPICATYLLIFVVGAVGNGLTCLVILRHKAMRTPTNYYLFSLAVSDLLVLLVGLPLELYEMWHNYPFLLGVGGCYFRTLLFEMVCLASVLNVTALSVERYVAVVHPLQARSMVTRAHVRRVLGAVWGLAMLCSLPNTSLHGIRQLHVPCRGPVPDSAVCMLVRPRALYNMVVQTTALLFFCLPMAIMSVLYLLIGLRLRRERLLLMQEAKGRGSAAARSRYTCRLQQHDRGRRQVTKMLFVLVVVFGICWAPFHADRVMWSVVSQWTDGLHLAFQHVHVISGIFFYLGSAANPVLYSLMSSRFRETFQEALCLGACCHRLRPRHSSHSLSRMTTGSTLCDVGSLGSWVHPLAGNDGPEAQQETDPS
# Target: T1, human neuromedin U receptor 1
# Assay: cell-based or functional assay
row,Binder,EC50 (hNMUR1) buffer
1,"{C18 diacid}-[γGlu][γGlu][γGlu][Sar][Sar][Sar][Sar][Sar][Sar][Sar][Sar][Sar][Sar][Sar][Sar][Sar][Sar][Sar][Pipz(1-CH2CO,4-CH2CH2NH)]YF[NMeL][Nle][2Pal][NMeA]RG-NH2 (SMILES CCCC[C@H](NC(=O)[C@H](CC(C)C)N(C)C(=O)[C@H](Cc1ccccc1)NC(=O)[C@H](Cc1ccc(O)cc1)NC(=O)CN1CCN(CCNC(=O)CN(C)C(=O)CN(C)C(=O)CN(C)C(=O)CN(C)C(=O)CN(C)C(=O)CN(C)C(=O)CN(C)C(=O)CN(C)C(=O)CN(C)C(=O)CN(C)C(=O)CN(C)C(=O)CN(C)C(=O)CN(C)C(=O)CN(C)C(=O)CN(C)C(=O)CC[C@H](NC(=O)CC[C@H](NC(=O)CC[C@H](NC(=O)CCCCCCCCCCCCCCCCC(=O)O)C(=O)O)C(=O)O)C(=O)O)CC1)C(=O)N[C@@H](Cc1ccccn1)C(=O)N(C)[C@@H](C)C(=O)N[C@@H](CCCNC(=N)N)C(=O)NCC(N)=O) [C18DA-gGlu3-Sar15-AEPipAc-Tyr-Phe-NMeLeu-Nle-2Pal-NMeAla-Arg-Gly-NH2]",> 1000 nM
2,EEEEXXXXXXXXXXXXXYFLXXPRG (HELM PEPTIDE1{[O=C(O)CCCCCCCCCCCCCCCCC(=O)[*:2]].[gGlu].[gGlu].[gGlu].[gGlu].[Sar].[Sar].[Sar].[Sar].[Sar].[Sar].[Sar].[Sar].[Sar].[Sar].[Sar].[Sar].[O=C(CN1CCN(CCN[*:1])CC1)[*:2]].Y.F.[meL].[Nle].[Orn].P.R.G.[am]}$$$$V2.0; SMILES CCCC[C@H](NC(=O)[C@H](CC(C)C)N(C)C(=O)[C@H](Cc1ccccc1)NC(=O)[C@H](Cc1ccc(O)cc1)NC(=O)CN1CCN(CCNC(=O)CN(C)C(=O)CN(C)C(=O)CN(C)C(=O)CN(C)C(=O)CN(C)C(=O)CN(C)C(=O)CN(C)C(=O)CN(C)C(=O)CN(C)C(=O)CN(C)C(=O)CN(C)C(=O)CN(C)C(=O)CC[C@H](NC(=O)CC[C@H](NC(=O)CC[C@H](NC(=O)CC[C@H](NC(=O)CCCCCCCCCCCCCCCCC(=O)O)C(=O)O)C(=O)O)C(=O)O)C(=O)O)CC1)C(=O)N[C@@H](CCCN)C(=O)N1CCC[C@H]1C(=O)N[C@@H](CCCNC(=N)N)C(=O)NCC(N)=O) [C18DA-gGlu4-Sar12-AEPipAc-Tyr-Phe-NMeLeu-Nle-Orn-Pro-Arg-Gly-NH2],870 nM
3,"{C18 diacid}-[γGlu][γGlu][γGlu][Sar][Sar][Sar][Sar][Sar][Sar][Sar][Sar][Sar][Sar][Sar][Sar][Sar][Sar][Sar][Pipz(1-CH2CO,4-CH2CH2NH)]YF[NMeL][Nle][4Pal]PRG-NH2 (SMILES CCCC[C@H](NC(=O)[C@H](CC(C)C)N(C)C(=O)[C@H](Cc1ccccc1)NC(=O)[C@H](Cc1ccc(O)cc1)NC(=O)CN1CCN(CCNC(=O)CN(C)C(=O)CN(C)C(=O)CN(C)C(=O)CN(C)C(=O)CN(C)C(=O)CN(C)C(=O)CN(C)C(=O)CN(C)C(=O)CN(C)C(=O)CN(C)C(=O)CN(C)C(=O)CN(C)C(=O)CN(C)C(=O)CN(C)C(=O)CN(C)C(=O)CC[C@H](NC(=O)CC[C@H](NC(=O)CC[C@H](NC(=O)CCCCCCCCCCCCCCCCC(=O)O)C(=O)O)C(=O)O)C(=O)O)CC1)C(=O)N[C@@H](Cc1ccncc1)C(=O)N1CCC[C@H]1C(=O)N[C@@H](CCCNC(=N)N)C(=O)NCC(N)=O) [C18DA-gGlu3-Sar15-AEPipAc-Tyr-Phe-NMeLeu-Nle-4Pal-Pro-Arg-Gly-NH2]",> 1000 nM
4,EEEEXXXXXXXXXXXXXYFLXXPRG (HELM PEPTIDE1{[O=C(O)CCCCCCCCCCCCCCCCCCC(=O)[*:2]].[gGlu].[gGlu].[gGlu].[gGlu].[Sar].[Sar].[Sar].[Sar].[Sar].[Sar].[Sar].[Sar].[Sar].[Sar].[Sar].[Sar].[O=C(CN1CCN(CCN[*:1])CC1)[*:2]].Y.F.[meL].[Nle].[Orn].P.R.G.[am]}$$$$V2.0; SMILES CCCC[C@H](NC(=O)[C@H](CC(C)C)N(C)C(=O)[C@H](Cc1ccccc1)NC(=O)[C@H](Cc1ccc(O)cc1)NC(=O)CN1CCN(CCNC(=O)CN(C)C(=O)CN(C)C(=O)CN(C)C(=O)CN(C)C(=O)CN(C)C(=O)CN(C)C(=O)CN(C)C(=O)CN(C)C(=O)CN(C)C(=O)CN(C)C(=O)CN(C)C(=O)CN(C)C(=O)CC[C@H](NC(=O)CC[C@H](NC(=O)CC[C@H](NC(=O)CC[C@H](NC(=O)CCCCCCCCCCCCCCCCCCC(=O)O)C(=O)O)C(=O)O)C(=O)O)C(=O)O)CC1)C(=O)N[C@@H](CCCN)C(=O)N1CCC[C@H]1C(=O)N[C@@H](CCCNC(=N)N)C(=O)NCC(N)=O) [C20DA-gGlu4-Sar12-AEPipAc-Tyr-Phe-NMeLeu-Nle-Orn-Pro-Arg-Gly-NH2],950 nM
5,EEEEXXXXXXXXXXXXXYFLXRPRG (HELM PEPTIDE1{[O=C(O)CCCCCCCCCCCCCCCCCCC(=O)[*:2]].[gGlu].[gGlu].[gGlu].[gGlu].[Sar].[Sar].[Sar].[Sar].[Sar].[Sar].[Sar].[Sar].[Sar].[Sar].[Sar].[Sar].[O=C(CN1CCN(CCN[*:1])CC1)[*:2]].Y.F.[meL].[Nle].R.P.R.G.[am]}$$$$V2.0; SMILES CCCC[C@H](NC(=O)[C@H](CC(C)C)N(C)C(=O)[C@H](Cc1ccccc1)NC(=O)[C@H](Cc1ccc(O)cc1)NC(=O)CN1CCN(CCNC(=O)CN(C)C(=O)CN(C)C(=O)CN(C)C(=O)CN(C)C(=O)CN(C)C(=O)CN(C)C(=O)CN(C)C(=O)CN(C)C(=O)CN(C)C(=O)CN(C)C(=O)CN(C)C(=O)CN(C)C(=O)CC[C@H](NC(=O)CC[C@H](NC(=O)CC[C@H](NC(=O)CC[C@H](NC(=O)CCCCCCCCCCCCCCCCCCC(=O)O)C(=O)O)C(=O)O)C(=O)O)C(=O)O)CC1)C(=O)N[C@@H](CCCNC(=N)N)C(=O)N1CCC[C@H]1C(=O)N[C@@H](CCCNC(=N)N)C(=O)NCC(N)=O) [C20DA-gGlu4-Sar12-AEPipAc-Tyr-Phe-NMeLeu-Nle-Arg-Pro-Arg-Gly-NH2],190 nM
6,EEEXXXXXXXXXXXXXXXXYFLXKPRG (HELM PEPTIDE1{[O=C(O)CCCCCCCCCCCCCCCCC(=O)[*:2]].[gGlu].[gGlu].[gGlu].[Sar].[Sar].[Sar].[Sar].[Sar].[Sar].[Sar].[Sar].[Sar].[Sar].[Sar].[Sar].[Sar].[Sar].[Sar].[O=C(CN1CCN(CCN[*:1])CC1)[*:2]].Y.F.[meL].[Nle].K.P.R.G.[am]}$$$$V2.0; SMILES CCCC[C@H](NC(=O)[C@H](CC(C)C)N(C)C(=O)[C@H](Cc1ccccc1)NC(=O)[C@H](Cc1ccc(O)cc1)NC(=O)CN1CCN(CCNC(=O)CN(C)C(=O)CN(C)C(=O)CN(C)C(=O)CN(C)C(=O)CN(C)C(=O)CN(C)C(=O)CN(C)C(=O)CN(C)C(=O)CN(C)C(=O)CN(C)C(=O)CN(C)C(=O)CN(C)C(=O)CN(C)C(=O)CN(C)C(=O)CN(C)C(=O)CC[C@H](NC(=O)CC[C@H](NC(=O)CC[C@H](NC(=O)CCCCCCCCCCCCCCCCC(=O)O)C(=O)O)C(=O)O)C(=O)O)CC1)C(=O)N[C@@H](CCCCN)C(=O)N1CCC[C@H]1C(=O)N[C@@H](CCCNC(=N)N)C(=O)NCC(N)=O) [C18DA-gGlu3-Sar15-AEPipAc-Tyr-Phe-NMeLeu-Nle-Lys-Pro-Arg-Gly-NH2],> 1000 nM
7,EEEEXXXXXXXXXXXXXYFLXXPRG (HELM PEPTIDE1{[O=C(O)CCCCCCCCCCCCCCCCC(=O)[*:2]].[gGlu].[gGlu].[gGlu].[gGlu].[Sar].[Sar].[Sar].[Sar].[Sar].[Sar].[Sar].[Sar].[Sar].[Sar].[Sar].[Sar].[O=C(CN1CCN(CCN[*:1])CC1)[*:2]].Y.F.[meL].[Nle].[Dab].P.R.G.[am]}$$$$V2.0; SMILES CCCC[C@H](NC(=O)[C@H](CC(C)C)N(C)C(=O)[C@H](Cc1ccccc1)NC(=O)[C@H](Cc1ccc(O)cc1)NC(=O)CN1CCN(CCNC(=O)CN(C)C(=O)CN(C)C(=O)CN(C)C(=O)CN(C)C(=O)CN(C)C(=O)CN(C)C(=O)CN(C)C(=O)CN(C)C(=O)CN(C)C(=O)CN(C)C(=O)CN(C)C(=O)CN(C)C(=O)CC[C@H](NC(=O)CC[C@H](NC(=O)CC[C@H](NC(=O)CC[C@H](NC(=O)CCCCCCCCCCCCCCCCC(=O)O)C(=O)O)C(=O)O)C(=O)O)C(=O)O)CC1)C(=O)N[C@@H](CCN)C(=O)N1CCC[C@H]1C(=O)N[C@@H](CCCNC(=N)N)C(=O)NCC(N)=O) [C18DA-gGlu4-Sar12-AEPipAc-Tyr-Phe-NMeLeu-Nle-Dbu-Pro-Arg-Gly-NH2],1300 nM
8,EEXXXXXXXXXXYFLXXARG (HELM PEPTIDE1{[O=C(O)CCCCCCCCCCCCCCCCC(=O)[*:2]].[gGlu].[gGlu].[Sar].[Sar].[Sar].[Sar].[Sar].[Sar].[Sar].[Sar].[Sar].[O=C(CN1CCN(CCN[*:1])CC1)[*:2]].Y.F.[meL].[Nle].[Orn].[meA].R.G.[am]}$$$$V2.0; SMILES CCCC[C@H](NC(=O)[C@H](CC(C)C)N(C)C(=O)[C@H](Cc1ccccc1)NC(=O)[C@H](Cc1ccc(O)cc1)NC(=O)CN1CCN(CCNC(=O)CN(C)C(=O)CN(C)C(=O)CN(C)C(=O)CN(C)C(=O)CN(C)C(=O)CN(C)C(=O)CN(C)C(=O)CN(C)C(=O)CN(C)C(=O)CC[C@H](NC(=O)CC[C@H](NC(=O)CCCCCCCCCCCCCCCCC(=O)O)C(=O)O)C(=O)O)CC1)C(=O)N[C@@H](CCCN)C(=O)N(C)[C@@H](C)C(=O)N[C@@H](CCCNC(=N)N)C(=O)NCC(N)=O) [C18DA-gGlu2-Sar9-AEPipAc-Tyr-Phe-NMeLeu-Nle-Orn-NMeAla-Arg-Gly-NH2],> 1000 nM
9,EEEXXXXXXXXXXXXXXXXYFLXKARG (HELM PEPTIDE1{[O=C(O)CCCCCCCCCCCCCCCCC(=O)[*:2]].[gGlu].[gGlu].[gGlu].[Sar].[Sar].[Sar].[Sar].[Sar].[Sar].[Sar].[Sar].[Sar].[Sar].[Sar].[Sar].[Sar].[Sar].[Sar].[O=C(CN1CCN(CCN[*:1])CC1)[*:2]].Y.F.[meL].[Nle].K.[meA].R.G.[am]}$$$$V2.0; SMILES CCCC[C@H](NC(=O)[C@H](CC(C)C)N(C)C(=O)[C@H](Cc1ccccc1)NC(=O)[C@H](Cc1ccc(O)cc1)NC(=O)CN1CCN(CCNC(=O)CN(C)C(=O)CN(C)C(=O)CN(C)C(=O)CN(C)C(=O)CN(C)C(=O)CN(C)C(=O)CN(C)C(=O)CN(C)C(=O)CN(C)C(=O)CN(C)C(=O)CN(C)C(=O)CN(C)C(=O)CN(C)C(=O)CN(C)C(=O)CN(C)C(=O)CC[C@H](NC(=O)CC[C@H](NC(=O)CC[C@H](NC(=O)CCCCCCCCCCCCCCCCC(=O)O)C(=O)O)C(=O)O)C(=O)O)CC1)C(=O)N[C@@H](CCCCN)C(=O)N(C)[C@@H](C)C(=O)N[C@@H](CCCNC(=N)N)C(=O)NCC(N)=O) [C18DA-gGlu3-Sar15-AEPipAc-Tyr-Phe-NMeLeu-Nle-Lys-NMeAla-Arg-Gly-NH2],> 1000 nM

# From patent publication US20240279278A1, “NMU RECEPTOR 2 AGONISTS” (Boehringer Ingelheim International GmbH, priority 2023, published 2024)
